Experimental findings from PMC4027165, “SAXS analysis of the tRNA-modifying enzyme complex MnmE/MnmG reveals a novel interaction mode and GTP-induced oligomerization” (Nucleic Acids Research, 2014) are described below.

Values joined by “and” are separate entries in the source; they are usually repeats but may differ in a detail not shown here. Identical values can stand only once.

Series [1] concerns the molecule itself. The experiment in a line: SEC-MALS + other: SAXS; A. aeolicus MnmG alone; SEC-MALS shows mainly monomer and a minor dimer peak; SAXS with online HPLC gel filtration on the dimer peak.
In series [2] the target is T1, MnmG from Escherichia coli, wild type (Escherichia coli, UniProt P0A6U3 1-629).
T1 construct: tRNA uridine 5-carboxymethylaminomethyl modification enzyme MnmG (formerly GidA), Escherichia coli; open reading frame cloned in a pET14b vector; Homodimer of 70-kDa subunits; also called GidA; MnmG wt
T1 sequence (looked up): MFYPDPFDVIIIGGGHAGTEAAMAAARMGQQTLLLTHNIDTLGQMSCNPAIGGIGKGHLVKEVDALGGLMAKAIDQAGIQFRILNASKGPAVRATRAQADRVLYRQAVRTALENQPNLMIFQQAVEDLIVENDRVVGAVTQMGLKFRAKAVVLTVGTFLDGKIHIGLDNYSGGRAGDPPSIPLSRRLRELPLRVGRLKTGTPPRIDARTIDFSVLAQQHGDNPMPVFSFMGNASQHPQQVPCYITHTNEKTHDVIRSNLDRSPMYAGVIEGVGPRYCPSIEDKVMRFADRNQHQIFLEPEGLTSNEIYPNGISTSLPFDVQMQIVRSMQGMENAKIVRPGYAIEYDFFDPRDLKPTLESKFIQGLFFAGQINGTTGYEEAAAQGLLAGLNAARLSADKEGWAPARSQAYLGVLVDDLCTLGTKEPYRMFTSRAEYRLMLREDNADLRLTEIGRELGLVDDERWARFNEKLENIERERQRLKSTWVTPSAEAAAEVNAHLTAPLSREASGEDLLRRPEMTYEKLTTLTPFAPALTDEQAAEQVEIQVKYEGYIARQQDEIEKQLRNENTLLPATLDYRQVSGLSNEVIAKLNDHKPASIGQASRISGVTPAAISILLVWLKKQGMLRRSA
The experiment in a line: SAXS + SEC-MALS; MnmE-GDP-AlFx mixed in 2-fold molar excess with MnmG; SAXS with online HPLC; molecular weight from SAXS and SEC-MALS. The settings on record: both partners purified. In general terms: Size exclusion chromatography separates by hydrodynamic size, large species first.

Series [3] concerns the molecule itself. The experiment in a line: SAXS + SEC-MALS; E. coli MnmE without nucleotides; SAXS in batch mode, 20 mM Hepes pH 7.5, 150 mM KCl, 5 mM MgCl2, 2 mM DTT; molecular weight from SAXS and SEC-MALS.
Series [4] addresses T1, MnmG from Escherichia coli, wild type. The experiment in a line: ITC; 278 K; 20 mM Hepes pH 7.5, 150 mM NaCl, 5 mM MgCl2, 2 mM BME, 1 mM FAD; 15 uM in the cell, 300 uM in the syringe; titrated in both directions; one site model; apparent. The settings on record: both partners purified. In general terms: ITC needs no label: the signal is the heat of the interaction.
The target is the same in series [5]. As to the kind of experiment: SAXS + SEC-MALS; E. coli MnmE and MnmG mixed equimolar without nucleotides, complex purified by gel filtration; SAXS with online HPLC; molecular weight from SAXS and SEC-MALS. The settings on record: both partners purified.
The target is the same in series [6]. The experiment in a line: ITC; 278 K; 20 mM Hepes pH 7.5, 150 mM NaCl, 5 mM MgCl2, 2 mM BME, 1 mM FAD; variants: 700 uM MnmE in the syringe into 50 uM MnmG in the cell and vice versa; one site model; apparent. The settings on record: both partners purified.
The target is the same in series [7]. As to the kind of experiment: SEC; analytical gel filtration of 66.7 uM MnmE(E282A)-MnmG complex mixed with 100 uM GTP, aliquots between 0 min and 24 h; 20 mM Hepes pH 7.5, 150 mM KCl, 5 mM MgCl2, 2 mM DTT. The settings on record: both partners purified.

B1: MnmG from Aquifex aeolicus (enzyme, UniProt O66962 1-617, looked up)
chain: MAWVVDEFDVVVIGGGHAGIEAALAAARMGAKTAMFVLNADTIGQMSCNPAIGGIAKGIVVREIDALGGEMGKAIDQTGIQFKMLNTRKGKAVQSPRAQADKKRYREYMKKVCENQENLYIKQEEVVDIIVKNNQVVGVRTNLGVEYKTKAVVVTTGTFLNGVIYIGDKMIPGGRLGEPRSEGLSDFYRRFDFPLIRFKTGTPARLDKRTIDFSALEVAPGDDPPPKFSFWTEPVGSYWFPKGKEQVNCWITYTTPKTHEIIRKNLHRTALYGGLIKGIGPRYCPSIEDKIVKFPDKERHQIFLEPEGLDTIEIYPNGLSTSLPEEVQWEMYRSIPGLENVVLIRPAYAIEYDVVPPTELYPTLETKKIRGLFHAGNFNGTTGYEEAAGQGIVAGINAALRAFGKEPIYLRRDESYIGVMIDDLTTKGVTEPYRLFTSRSEYRLYIRQDNAILRLAKLGRELGLLSEEQYKLVKELEREIEKWKEFYKSERVSVAVGGDTRSYSVATLMTMNYTLDDVKEKFGYEVPQHPYVKEEVEIQLKYEPYIERERKLNEKLKKLEDTKIPPDIDYDKIPGLTKEAREKLKKFKPITVGQASRIDGITPAAITALLVYLGKLD
notes: tRNA uridine 5-carboxymethylaminomethyl modification enzyme MnmG, Aquifex aeolicus; open reading frame cloned in a pET28a vector; Mainly a monomer by SEC-MALS, with a minor dimer peak; SAXS was measured on the dimer peak; also called A. aeolicus MnmG; GidA
Take B1: the “stoichiometry N” value in series [1] amounted to 2.

B2: MnmE from Escherichia coli, wild type (enzyme, UniProt P25522 1-454, looked up)
chain: MSDNDTIVAQATPPGRGGVGILRISGFKAREVAETVLGKLPKPRYADYLPFKDADGSVLDQGIALWFPGPNSFTGEDVLELQGHGGPVILDLLLKRILTIPGLRIARPGEFSERAFLNDKLDLAQAEAIADLIDASSEQAARSALNSLQGAFSARVNHLVEALTHLRIYVEAAIDFPDEEIDFLSDGKIEAQLNDVIADLDAVRAEARQGSLLREGMKVVIAGRPNAGKSSLLNALAGREAAIVTDIAGTTRDVLREHIHIDGMPLHIIDTAGLREASDEVERIGIERAWQEIEQADRVLFMVDGTTTDAVDPAEIWPEFIARLPAKLPITVVRNKADITGETLGMSEVNGHALIRLSARTGEGVDVLRNHLKQSMGFDTNMEGGFLARRRHLQALEQAAEHLQQGKAQLLGAWAGELLAEELRLAQQNLSEITGEFTSDDLLGRIFSSFCIGK
notes: tRNA modification GTPase MnmE (formerly TrmE), Escherichia coli; open reading frame cloned in a pET20 vector; Homodimer of about 50-kDa subunits; Used nucleotide-free, with GDP-AlFx or with GppNHp depending on the experiment; also called TrmE; MnmE wt
B2: the “stoichiometry N” value came out at 2 in series [2], 2 in series [3], 0.5 in series [4] and 1 in series [5]. Besides, the Kd in series [4] was 3 µM and 7 µM.

B3: MnmE (Y169A, D175A and F176A) with additional S153A (enzyme, Escherichia coli, UniProt P25522 1-454, looked up)
chain: MSDNDTIVAQATPPGRGGVGILRISGFKAREVAETVLGKLPKPRYADYLPFKDADGSVLDQGIALWFPGPNSFTGEDVLELQGHGGPVILDLLLKRILTIPGLRIARPGEFSERAFLNDKLDLAQAEAIADLIDASSEQAARSALNSLQGAFAARVNHLVEALTHLRIAVEAAIAAPDEEIDFLSDGKIEAQLNDVIADLDAVRAEARQGSLLREGMKVVIAGRPNAGKSSLLNALAGREAAIVTDIAGTTRDVLREHIHIDGMPLHIIDTAGLREASDEVERIGIERAWQEIEQADRVLFMVDGTTTDAVDPAEIWPEFIARLPAKLPITVVRNKADITGETLGMSEVNGHALIRLSARTGEGVDVLRNHLKQSMGFDTNMEGGFLARRRHLQALEQAAEHLQQGKAQLLGAWAGELLAEELRLAQQNLSEITGEFTSDDLLGRIFSSFCIGK
notes: MnmE, Escherichia coli, point variant made by QuikChange mutagenesis of the pET20 construct; Variant of m6 with Ser153 also changed to alanine
Regarding B3, the “fold decrease in apparent affinity against wild type” value in series [6] is not above 10 fold.

B4: MnmE (E282A) (enzyme, Escherichia coli, UniProt P25522 1-454, looked up)
chain: MSDNDTIVAQATPPGRGGVGILRISGFKAREVAETVLGKLPKPRYADYLPFKDADGSVLDQGIALWFPGPNSFTGEDVLELQGHGGPVILDLLLKRILTIPGLRIARPGEFSERAFLNDKLDLAQAEAIADLIDASSEQAARSALNSLQGAFSARVNHLVEALTHLRIYVEAAIDFPDEEIDFLSDGKIEAQLNDVIADLDAVRAEARQGSLLREGMKVVIAGRPNAGKSSLLNALAGREAAIVTDIAGTTRDVLREHIHIDGMPLHIIDTAGLREASDEVARIGIERAWQEIEQADRVLFMVDGTTTDAVDPAEIWPEFIARLPAKLPITVVRNKADITGETLGMSEVNGHALIRLSARTGEGVDVLRNHLKQSMGFDTNMEGGFLARRRHLQALEQAAEHLQQGKAQLLGAWAGELLAEELRLAQQNLSEITGEFTSDDLLGRIFSSFCIGK
notes: MnmE, Escherichia coli, slowly GTP-hydrolysing point variant; Variant of m1; also called slow hydrolyzing mutant MnmE (E282A)
Regarding B4, the binding result in series [7] is “binds”.

What is called stoichiometry N is a count of units in the complex or per binding partner.
